These results are taken from publication PMC1278935, “Different Catalytic Mechanisms in Mammalian Selenocysteine- and Cysteine-Containing Methionine-R-Sulfoxide Reductases” (PLoS Biology, 2005).

What is called Km is the concentration of substrate that gives half-maximal velocity. A word on the kcat: it is the number of substrate molecules converted per active site and unit of time at saturation.

This data set has as its system T1, CN(C)c1ccc(N=Nc2ccc(S(=O)(=O)N[C@@H](CC[S@@+](C)[O-])C(=O)O)cc2)cc1.
T1 construct: full-length mouse MsrB2, C-terminal His tag (LEHHHHHH), E. coli BL21(DE3), monomer
The data set can be described thus: HPLC of dabsyl-Met, Lineweaver-Burk. As to conditions: 20 mM DTT, 50 mM sodium phosphate pH 7.5, 50 mM NaCl, 37 °C, from E. coli. Type of data set: biochemical, Mus musculus. An excerpt: HPLC of dabsyl-Met, Lineweaver-Burk on MsrB2

Chain of MsrB2 (Mus musculus; V149E) (chain, as listed by the source V149E): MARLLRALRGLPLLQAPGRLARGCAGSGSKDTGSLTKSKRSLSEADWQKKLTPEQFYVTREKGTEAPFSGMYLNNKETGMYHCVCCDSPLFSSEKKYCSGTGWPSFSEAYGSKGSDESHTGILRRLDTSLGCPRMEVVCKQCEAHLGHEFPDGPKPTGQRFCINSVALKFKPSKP
Chain of MsrB2 (Mus musculus; H119G) (chain, as listed by the source H119G): as the sequence (chain, as listed by the source V149E) above, with H119G, E149V counted along it
Chain of MsrB2 (Mus musculus) (chain, as listed by the source): as the sequence (chain, as listed by the source V149E) above, with E149V counted along it

Take MsrB2 (Mus musculus): the Km was 310 ± 100 µM and the catalytic constant (kcat) came to 0.458 ± 0.0633 s⁻¹.
On to MsrB2 (Mus musculus; H119G), for which, where the note is “MsrB1 numbering”, the Km was determined as 340 ± 60 µM and the kcat is 0.0083 ± 0.0017 s⁻¹.
With MsrB2 (Mus musculus; V149E), where the note is “MsrB1 numbering”, the Km is 140 ± 40 µM and the kcat amounted to 0.0933 ± 0.012 s⁻¹.
